From patent publication US20260061032A1
pKd: −log10 of the molar value.

Experiments:
[1] = target: membrane-bound human CD73 (human) (UniProt P21589); experiment: cell-based or functional assay
hCD73 (human) [2] = target: hCD73 (human) (UniProt P21589); experiment: cell-based or functional assay
cyCD73 = experiment: SPR, Biacore T200; binder captured on CM5 chip by human antibody capture kit, CD73 as analyte
hCD73 (human) [3] = target: hCD73 (human) (UniProt P21589); experiment: as above
hIL-2Rβγ (human) = hIL-2Rβγ (human) (UniProt P14784); experiment: SPR, Biacore T200; hIL-2Rβγ as analyte, single cycle kinetics; three-step format as the filing describes it
[4] = target: hIL-2Rαβγ on CTLL-2 cells (human) (UniProt P01589); experiment: cell-based or functional assay
[5] = target: IL-2Rβγ on HEK-BLUE IL-2 reporter cells (UniProt P14784); experiment: cell-based or functional assay
hIL-2Rα (human) = hIL-2Rα (human) (UniProt P01589); experiment: SPR, Biacore T200; hIL-2Rα on CM5 chip through His capture kit, binder as analyte
hIL-2Rβ (human) = hIL-2Rβ (human) (UniProt P14784); experiment: SPR, Biacore T200; hIL-2Rβ as analyte; three-step format as the filing describes it
hIL-2Rβ (human), sequence (P14784 27-239): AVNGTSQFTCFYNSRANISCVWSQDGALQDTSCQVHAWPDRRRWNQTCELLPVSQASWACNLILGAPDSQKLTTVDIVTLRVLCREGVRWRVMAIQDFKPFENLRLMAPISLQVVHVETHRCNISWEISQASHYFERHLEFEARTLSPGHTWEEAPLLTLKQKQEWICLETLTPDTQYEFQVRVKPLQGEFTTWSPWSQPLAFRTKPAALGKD

hCD73 (human), sequence (P21589 27-549 limits assumed): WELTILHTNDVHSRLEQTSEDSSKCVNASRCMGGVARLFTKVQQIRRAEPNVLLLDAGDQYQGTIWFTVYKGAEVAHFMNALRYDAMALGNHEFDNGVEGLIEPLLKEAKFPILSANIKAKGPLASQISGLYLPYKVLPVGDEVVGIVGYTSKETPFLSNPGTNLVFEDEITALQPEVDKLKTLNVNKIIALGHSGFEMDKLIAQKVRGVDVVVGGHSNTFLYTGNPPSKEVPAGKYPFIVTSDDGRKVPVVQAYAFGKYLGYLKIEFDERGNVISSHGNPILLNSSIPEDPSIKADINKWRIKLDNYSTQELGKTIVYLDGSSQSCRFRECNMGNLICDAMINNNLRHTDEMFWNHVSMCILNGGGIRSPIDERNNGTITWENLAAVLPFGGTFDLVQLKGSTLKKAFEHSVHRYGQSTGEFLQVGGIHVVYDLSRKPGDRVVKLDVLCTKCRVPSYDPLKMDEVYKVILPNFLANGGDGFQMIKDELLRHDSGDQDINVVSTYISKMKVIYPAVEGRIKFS
IL-2Rβγ on HEK-BLUE IL-2 reporter cells, sequence (P14784 27-551, chain 1 of 2): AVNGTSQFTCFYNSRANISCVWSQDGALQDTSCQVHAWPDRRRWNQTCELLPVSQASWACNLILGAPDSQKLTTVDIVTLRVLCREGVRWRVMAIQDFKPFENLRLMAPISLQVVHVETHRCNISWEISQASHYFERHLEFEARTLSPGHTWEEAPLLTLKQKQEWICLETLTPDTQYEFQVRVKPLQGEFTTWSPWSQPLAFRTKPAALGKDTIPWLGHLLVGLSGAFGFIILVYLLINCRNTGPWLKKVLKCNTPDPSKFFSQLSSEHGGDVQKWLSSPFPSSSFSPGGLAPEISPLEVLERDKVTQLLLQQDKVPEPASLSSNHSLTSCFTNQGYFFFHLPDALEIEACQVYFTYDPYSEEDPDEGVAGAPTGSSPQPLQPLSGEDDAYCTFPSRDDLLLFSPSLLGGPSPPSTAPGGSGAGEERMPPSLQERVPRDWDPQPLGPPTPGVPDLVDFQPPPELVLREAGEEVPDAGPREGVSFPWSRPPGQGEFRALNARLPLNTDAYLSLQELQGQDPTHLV
IL-2Rβγ on HEK-BLUE IL-2 reporter cells, sequence (P31785 23-369, chain 2 of 2, further chain): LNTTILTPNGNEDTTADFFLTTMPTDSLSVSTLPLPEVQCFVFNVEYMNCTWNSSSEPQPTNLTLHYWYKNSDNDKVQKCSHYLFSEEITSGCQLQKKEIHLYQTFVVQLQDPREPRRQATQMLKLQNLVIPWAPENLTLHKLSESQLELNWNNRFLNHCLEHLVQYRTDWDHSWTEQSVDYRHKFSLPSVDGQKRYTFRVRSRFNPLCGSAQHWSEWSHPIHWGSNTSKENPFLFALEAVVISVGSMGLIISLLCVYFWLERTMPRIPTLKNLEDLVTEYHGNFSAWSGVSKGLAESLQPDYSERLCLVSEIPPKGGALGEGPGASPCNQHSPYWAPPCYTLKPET
hIL-2Rβγ (human), sequence (P14784 27-239, chain 1 of 2): as the sequence (P14784 27-239) above
hIL-2Rβγ (human), sequence (P31785 23-254, chain 2 of 2, further chain): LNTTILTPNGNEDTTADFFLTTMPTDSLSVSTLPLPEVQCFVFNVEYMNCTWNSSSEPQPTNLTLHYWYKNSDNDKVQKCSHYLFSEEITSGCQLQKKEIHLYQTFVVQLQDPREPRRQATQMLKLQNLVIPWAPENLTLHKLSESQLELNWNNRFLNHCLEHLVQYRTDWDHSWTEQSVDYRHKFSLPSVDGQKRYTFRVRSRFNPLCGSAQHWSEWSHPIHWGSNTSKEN
membrane-bound human CD73 (human), sequence (P21589 27-549 limits assumed): as the sequence (P21589 27-549 limits assumed) above
hIL-2Rα (human), sequence (P01589 22-213): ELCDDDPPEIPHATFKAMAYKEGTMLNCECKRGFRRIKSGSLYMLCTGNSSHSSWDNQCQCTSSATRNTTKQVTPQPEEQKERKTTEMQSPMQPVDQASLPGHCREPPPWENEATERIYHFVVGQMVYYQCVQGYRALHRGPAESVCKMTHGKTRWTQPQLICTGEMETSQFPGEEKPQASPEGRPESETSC
hIL-2Rαβγ on CTLL-2 cells (human), sequence (P01589 22-272, chain 1 of 3): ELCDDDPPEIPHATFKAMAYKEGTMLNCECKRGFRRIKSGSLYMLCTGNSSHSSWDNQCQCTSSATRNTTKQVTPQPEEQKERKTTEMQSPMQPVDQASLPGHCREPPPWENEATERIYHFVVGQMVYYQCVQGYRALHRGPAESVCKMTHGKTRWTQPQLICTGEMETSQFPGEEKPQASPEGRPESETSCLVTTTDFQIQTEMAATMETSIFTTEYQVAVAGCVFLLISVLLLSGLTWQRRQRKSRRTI
hIL-2Rαβγ on CTLL-2 cells (human), sequence (P14784 27-551, chain 2 of 3, further chain): as the sequence (P14784 27-551, chain 1 of 2) above
hIL-2Rαβγ on CTLL-2 cells (human), sequence (P31785 23-369, chain 3 of 3, further chain): as the sequence (P31785 23-369, chain 2 of 2, further chain) above

Row | IC50, inhibition of membrane-bound CD73 enzyme activity on MDA-MB-231 cells (adenosine assay) [1] [nM] | IC50, inhibition of soluble CD73 enzyme activity (AMP-Glo assay, recombinant human CD73) (hCD73 (human) [2]) [nM] | pKd (cyCD73) | pKd (hCD73 (human) [3]) | pKd (hIL-2Rβγ (human)) | EC50, CTLL-2 cell proliferation (WST-1 absorbance) [4] [nM] | EC50, SEAP reporter (JAK-STAT pathway activation) in HEK-BLUE IL-2 reporter cells [5] [nM] | pKd (hIL-2Rα (human)) | pKd (hIL-2Rβ (human)) | Substance
1 | 1.47 | 0.03 | 9.46 | 10.00 | – | – | – | – | – | Oleclumab (Astrazeneca), produced on order from Ybiologics, Inc. (antibody)
2 | – | – | – | – | 11.00 | 0.08 | 0.0103 | 7.30 | 5.68 | Aldesleukin (trade name: PROLEUKIN, Novartis) (ligand)
